Measurements: the supplement of paper PMC9112550, “Optimization of the antimicrobial peptide Bac7 by deep mutational scanning” (BMC Biology, 2022)

Each sequence was assayed on Escherichia coli TOP10 (assay: shrunken log2 fold change of peptide-encoding DNA abundance (4.5 h post-induction vs induction); higher = less antimicrobial activity (less host growth inhibition)). Settings: time post-induction: 4.5 h; library: site-saturation at positions 5, 18, 19, 20.
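Note: peptides expressed intracellularly from a pBAD plasmid library in pooled LB shake-flask culture, induced with 0.3% L-arabinose, DNA abundance read by NGS, three biological replicates, DESeq2 with apeglm shrinkage.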

| Sequence | shrunken log2 fold change |
| --- | --- |
| RRIRKRPPRLPRPRPRPTRWPRP | 0.413 |
| RRIRRRPPRLPRPRPRPGPTPRP | 0.678 |
| RRIRSRPPRLPRPRPRPPTSPRP | 0.0457 |
| RRIRCRPPRLPRPRPRPEQVPRP | -0.0491 |
| RRIRYRPPRLPRPRPRPQPCPRP | 0.025 |
| RRIRRRPPRLPRPRPRPIVYPRP | -0.00893 |
| RRIRIRPPRLPRPRPRPNVIPRP | -0.82 |
| RRIRERPPRLPRPRPRPKPVPRP | 0.173 |
| RRIRYRPPRLPRPRPRPDCYPRP | -3.15 |
| RRIRNRPPRLPRPRPRPEVIPRP | 0.00635 |
| RRIRERPPRLPRPRPRPEWVPRP | 0.241 |
| RRIRLRPPRLPRPRPRPQWFPRP | -0.0962 |
| RRIRTRPPRLPRPRPRPNHVPRP | -0.0538 |
| RRIRDRPPRLPRPRPRPCPAPRP | -0.156 |
| RRIRLRPPRLPRPRPRPWTNPRP | 0.0169 |
| RRIRMRPPRLPRPRPRPSEVPRP | 0.159 |
| RRIRERPPRLPRPRPRPKCPPRP | 0.0136 |
| RRIRCRPPRLPRPRPRPCWPPRP | -0.0967 |
| RRIRGRPPRLPRPRPRPRDLPRP | 0.473 |
| RRIRLRPPRLPRPRPRPYHKPRP | -0.304 |
| RRIRLRPPRLPRPRPRPNMYPRP | -0.284 |
| RRIRDRPPRLPRPRPRPIRWPRP | 0.13 |
| RRIRQRPPRLPRPRPRPARFPRP | 0.0469 |
| RRIRLRPPRLPRPRPRPKQGPRP | -0.0685 |
| RRIRYRPPRLPRPRPRPLYLPRP | -0.992 |

| Sequence | shrunken log2 fold change |
| --- | --- |
| RRIRHRPPRLPRPRPRPSKDPRP | -0.293 |
| RRIRYRPPRLPRPRPRPHEGPRP | -0.199 |
| RRIRVRPPRLPRPRPRPWKDPRP | -0.00963 |
| RRIRARPPRLPRPRPRPQQNPRP | 0.166 |
| RRIRRRPPRLPRPRPRPWKHPRP | -0.167 |
| RRIRRRPPRLPRPRPRPHPGPRP | 0.316 |
| RRIRKRPPRLPRPRPRPVHSPRP | 0.034 |
| RRIRIRPPRLPRPRPRPQFNPRP | -0.846 |
| RRIRMRPPRLPRPRPRPQVQPRP | -0.000946 |
| RRIRQRPPRLPRPRPRPLNNPRP | -0.586 |
| RRIRGRPPRLPRPRPRPNSCPRP | 0.0941 |
| RRIRLRPPRLPRPRPRPAQFPRP | 0.28 |
| RRIRNRPPRLPRPRPRPEVPPRP | 0.095 |
| RRIRWRPPRLPRPRPRPEPNPRP | 1.23 |
| RRIRIRPPRLPRPRPRPISKPRP | -0.161 |
| RRIRTRPPRLPRPRPRPWVQPRP | -0.0274 |
| RRIRNRPPRLPRPRPRPPPFPRP | 0.47 |
| RRIRWRPPRLPRPRPRPLIFPRP | -0.215 |
| RRIRCRPPRLPRPRPRPGGSPRP | 0.0334 |
| RRIRSRPPRLPRPRPRPRRAPRP | 0.41 |
| RRIRCRPPRLPRPRPRPEHAPRP | 0.999 |
| RRIRFRPPRLPRPRPRPMDLPRP | -0.161 |
| RRIRNRPPRLPRPRPRPFVGPRP | -0.182 |
| RRIRMRPPRLPRPRPRPELYPRP | 0.0658 |
| RRIRGRPPRLPRPRPRPPSVPRP | 0.645 |

| Sequence | shrunken log2 fold change |
| --- | --- |
| RRIRDRPPRLPRPRPRPFEPPRP | -0.057 |
| RRIRGRPPRLPRPRPRPCEMPRP | 0.852 |
| RRIRQRPPRLPRPRPRPCMWPRP | -0.148 |
| RRIRARPPRLPRPRPRPSQRPRP | 0.373 |
| RRIRCRPPRLPRPRPRPEFYPRP | -0.356 |
| RRIRPRPPRLPRPRPRPWFTPRP | -0.0465 |
| RRIRSRPPRLPRPRPRPYPLPRP | -0.105 |
| RRIRWRPPRLPRPRPRPSTGPRP | 0.00923 |
| RRIRRRPPRLPRPRPRPTMFPRP | 0.0275 |
| RRIRVRPPRLPRPRPRPYVIPRP | -0.189 |
| RRIRPRPPRLPRPRPRPYQHPRP | -0.592 |
| RRIRNRPPRLPRPRPRPDTEPRP | -0.0108 |
| RRIRGRPPRLPRPRPRPDKMPRP | 0.261 |
| RRIRNRPPRLPRPRPRPDMNPRP | -0.0522 |
| RRIRRRPPRLPRPRPRPDFQPRP | -0.135 |
| RRIRLRPPRLPRPRPRPRFSPRP | 0.0406 |
| RRIRGRPPRLPRPRPRPKWYPRP | 0.806 |
| RRIRRRPPRLPRPRPRPIWVPRP | 0.222 |
| RRIRERPPRLPRPRPRPYDSPRP | -0.0594 |
| RRIRYRPPRLPRPRPRPVDAPRP | -0.42 |
| RRIRYRPPRLPRPRPRPRRIPRP | 0.014 |
| RRIRYRPPRLPRPRPRPYLGPRP | -0.261 |
| RRIRIRPPRLPRPRPRPCSLPRP | -0.172 |
| RRIRMRPPRLPRPRPRPWKYPRP | -0.198 |
| RRIRCRPPRLPRPRPRPMQSPRP | -0.0765 |

| Sequence | shrunken log2 fold change |
| --- | --- |
| RRIRDRPPRLPRPRPRPLRGPRP | 0.112 |
| RRIRARPPRLPRPRPRPFRQPRP | 0.0566 |
| RRIRWRPPRLPRPRPRPNKFPRP | -0.369 |
| RRIRRRPPRLPRPRPRPKSCPRP | 0.0766 |
| RRIRCRPPRLPRPRPRPTTVPRP | -0.356 |
| RRIRDRPPRLPRPRPRPQQQPRP | -0.114 |
| RRIRKRPPRLPRPRPRPNMQPRP | 0.26 |
| RRIRQRPPRLPRPRPRPNDPPRP | -0.0265 |
| RRIRYRPPRLPRPRPRPCVSPRP | -0.0134 |
| RRIRVRPPRLPRPRPRPMGMPRP | 0.0727 |
| RRIRMRPPRLPRPRPRPFCQPRP | 0.0975 |
| RRIRVRPPRLPRPRPRPKDHPRP | -0.308 |
| RRIRIRPPRLPRPRPRPYCEPRP | -0.21 |
| RRIRVRPPRLPRPRPRPCICPRP | -0.338 |
| RRIRRRPPRLPRPRPRPQSMPRP | 0.0695 |
| RRIRERPPRLPRPRPRPHEPPRP | -0.0545 |
| RRIRMRPPRLPRPRPRPYLLPRP | -0.204 |
| RRIRWRPPRLPRPRPRPHSIPRP | -0.143 |
| RRIRKRPPRLPRPRPRPRNIPRP | -0.116 |
| RRIRVRPPRLPRPRPRPERLPRP | -0.0657 |
| RRIRGRPPRLPRPRPRPGAHPRP | 0.755 |
| RRIRQRPPRLPRPRPRPLVIPRP | -0.682 |
| RRIRLRPPRLPRPRPRPQLDPRP | 0.0655 |
| RRIRTRPPRLPRPRPRPGRLPRP | 0.171 |
| RRIRIRPPRLPRPRPRPRLCPRP | 0.0776 |

| Sequence | shrunken log2 fold change |
| --- | --- |
| RRIRVRPPRLPRPRPRPGPFPRP | -0.0278 |
| RRIRNRPPRLPRPRPRPDSGPRP | -0.166 |
| RRIRPRPPRLPRPRPRPAREPRP | 0.68 |
| RRIRERPPRLPRPRPRPTWYPRP | -0.217 |
| RRIRFRPPRLPRPRPRPMIVPRP | -0.105 |
| RRIRWRPPRLPRPRPRPMMVPRP | 0.0168 |
| RRIRHRPPRLPRPRPRPSKAPRP | -0.463 |
| RRIRPRPPRLPRPRPRPLRIPRP | 0.0628 |
| RRIRMRPPRLPRPRPRPLFQPRP | -0.279 |
| RRIRHRPPRLPRPRPRPAEYPRP | 0.034 |
| RRIRARPPRLPRPRPRPHCRPRP | -0.0687 |
| RRIRIRPPRLPRPRPRPRMAPRP | 0.0331 |
| RRIRNRPPRLPRPRPRPHFHPRP | -0.529 |
| RRIRPRPPRLPRPRPRPQQNPRP | 0.076 |
| RRIRKRPPRLPRPRPRPLEHPRP | 0.156 |
| RRIRFRPPRLPRPRPRPGPEPRP | 0.103 |
| RRIRNRPPRLPRPRPRPASHPRP | 0.0783 |
| RRIRIRPPRLPRPRPRPHLRPRP | -0.00802 |
| RRIRGRPPRLPRPRPRPSEVPRP | 0.425 |
| RRIRHRPPRLPRPRPRPATWPRP | 0.222 |
| RRIRYRPPRLPRPRPRPGYMPRP | -0.716 |
| RRIRNRPPRLPRPRPRPDGMPRP | 0.0319 |
| RRIRGRPPRLPRPRPRPLLAPRP | 2.21 |
| RRIRQRPPRLPRPRPRPPAQPRP | 0.0181 |
| RRIRIRPPRLPRPRPRPVCQPRP | -0.202 |
